Laboratory results: US20240360234A1 (NKARTA, published 2024)

T1: CD70-hFc complex (extracellular domain of human CD70 fused with the Fc region of human IgG1) (human) (UniProt P32970)
T1 sequence (looked up): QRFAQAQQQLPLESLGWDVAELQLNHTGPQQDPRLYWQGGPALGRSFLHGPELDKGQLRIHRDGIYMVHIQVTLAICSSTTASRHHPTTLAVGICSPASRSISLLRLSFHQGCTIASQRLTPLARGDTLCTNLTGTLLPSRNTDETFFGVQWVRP


Tests used:
[1] = biological target: T2, CD27 (endogenous, on Jurkat cells) (UniProt P26842 20-260, limits assumed); assay: flow cytometry, CD70-hFc at 2 or 10 ug/ml on native Jurkat cells, anti-human Fc-APC detection
T2 construct: whole, on cells; also called the ligand for CD70
Method: FIGS. 27A-27F show data related to the ability of anti-CD70 CAR-expressing Jurkat cells to bind human bind CD70. […] Moving left to right are negative control, control for the antibody to human Fc, binding when 2 ug/ml of a CD70-hFc complex is incubated with the Jurkat cells and binding is detected with the human Fc-APC antibody, and binding when 10 ug/ml of a CD70-hFc complex is incubated with the Jurkat cells and binding is detected with the human Fc-APC antibody. […] Moving left to right is a control for the antibody to murine Fc, binding when 2 ug/ml of a CD70-murine Fc complex is incubated with the Jurkat cells and binding is detected with a murine Fc-APC antibody, and binding when 10 ug/ml of a CD70-murine Fc complex is incubated with the Jurkat cells and binding is detected with the murine Fc-APC antibody, and detection of Flag tag (present in the NK71/72 CAR constructs, but not native Jurkat cells). […] Moving left to right are negative control, control for the antibody to human Fc, binding when 2 ug/ml of a CD70-hFc complex is incubated with the Jurkat cells and binding is detected with the human Fc-APC antibody, and binding when 10 ug/ml of a CD70-hFc complex is incubated with the Jurkat cells and binding is detected with the human Fc-APC antibody. […]

[2] = biological target: T1, CD70-hFc complex (extracellular domain of human CD70 fused with the Fc region of human IgG1) (human); assay: flow cytometry, CD70-hFc at 10 ug/mL on NK71-transduced Jurkat cells (about 16% NK71 positive; the cells also carry endogenous CD27)
[3] = biological target: T1, CD70-hFc complex (extracellular domain of human CD70 fused with the Fc region of human IgG1) (human); assay: flow cytometry, CD70-hFc at 2 ug/mL on NK71-transduced Jurkat cells (about 16% NK71 positive; the cells also carry endogenous CD27)

T2 sequence (P26842 20-260 limits assumed): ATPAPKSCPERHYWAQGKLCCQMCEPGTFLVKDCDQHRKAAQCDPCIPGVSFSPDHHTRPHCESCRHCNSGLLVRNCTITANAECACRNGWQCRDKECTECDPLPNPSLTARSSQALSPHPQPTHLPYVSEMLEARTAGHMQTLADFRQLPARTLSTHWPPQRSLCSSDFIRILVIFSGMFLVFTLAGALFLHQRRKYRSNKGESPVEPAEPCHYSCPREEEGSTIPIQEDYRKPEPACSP

Row | binding result [1] | percent of Jurkat cells binding CD70 [2] [%] | percent of Jurkat cells binding CD70 [3] [%] | Binder
1 | binds |  |  | CD70-hFc complex (extracellular domain of human CD70 fused with the Fc region of human IgG1) (Fc fusion, UniProt P32970 39-193, looked up, range 39-193; Soluble reagent added at 2 or 10 ug/ml and detected with an anti-human Fc-APC antibody; not shown: Fc region of human IgG1, at the N-terminus of the fusion) QRFAQAQQQLPLESLGWDVAELQLNHTGPQQDPRLYWQGGPALGRSFLHGPELDKGQLRIHRDGIYMVHIQVTLAICSSTTASRHHPTTLAVGICSPASRSISLLRLSFHQGCTIASQRLTPLARGDTLCTNLTGTLLPSRNTDETFFGVQWVRP
2 |  | > 80 | 50 | NK71 anti-CD70 CAR (scFv, not shown: a dimerising Fc or GST; small tags and cut ends) scFv: QVTLKESGPVLVKPTETLTLTCTVSGFSLSNARMGVTWIRQPPGKALEWLAHIFSNDEKSYSTSLKSRLTISKDTSKTQVVLTMTNMDPVDTATYYCARIRDYYDISSYYDYWGQGTLVSVSSGGGGSGGGGSGGGGSDIQMTQSPSAMSASVGDRVTITCRASQDISNYLAWFQQKPGKVPKRLIYAASSLQSGVPSRFSGSGSGTEFTLTISSLLPEDFATYYCLQLNSFPFTFGGGTKVEIN
